From the RNAGym collection of RNA variant scans (doi:10.1073/pnas.2313332121)

B1: TPR t1 (parent)
chain: GACCAAUCUGCCCUCAGAGCUCGAGAACAUCUUCGGAUGCAGAGGAGGCAGGCUUCGGUGGCGCGAUAGCGCCAACGUCCUCAACCUCCAAUGCAUCCCACCACAUGAUGAUGCCUGAAGAGCCUUGGUUUUUUG

Variants of: B1
Assay: polymerase ribozyme fitness, log enrichment relative to wild type (log ratio); higher = more active; in vitro selection for triplet polymerase activity
Procedure, shortened: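 Streptavidin-bead capture of gel-excised extended constructs, followed by RT-PCR, closed a single triplicate in vitro selection round. That round began by annealing PCR-built, transcribed mutant libraries of each subunit of a heterodimeric triplet polymerase ribozyme with a biotinylated primer, the partner subunit and triplets, then incubating them frozen at −7 °C. After Illumina sequencing of inputs and outputs, genotypes needed ≥10 input reads and ≥1 read per output. Fitness is the base-2 logarithm of genotype enrichment over wild-type enrichment, using inverse-variance-weighted replicate averages.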

Compared with GACCAAUCUGCCCUCAGAGCUCGAGAACAUCUUCGGAUGCAGAGGGGGCAGGCUUCGGUGGCGCGAUACCGCCAACGUCCUCAACCUCCAAUGCAUCCCACCACAUGAUGAUACCUGAAGAGCCUUGGUUUUUUG [A46G G69C G113A], GACCAAUCUGCCCUCAGAGCUCGAGAACAUCUUCGGAUGCAGAGGGGGCAGGCUUCGGUGGCGCGAUAGCGCCAACGUCCUCAACCUCCAAUGCAUCCCACCACAUAAUGAUGCCUGAAGAGCCUUGGUUUUUUG [A46G G107A] is lower in “polymerase ribozyme fitness (log ratio)” value: -3.12 for the first, -4.88 for the second.

First: GACCAAUCUGCCCUCAGAGCUCGAGAACAUCUUCGGAUGCAGAGGUGGCAGGCUUCGGUGGCGCGAUAGCGCCUACGUCCUCAACCUCCAAUGCAUCCCACCACAUGAUGAUGCCUGAGGAGCCUUGGUUUUUUG [A46U A74U A119G]
Second: GACCAAUCUGCCCUCAGAGCUCGAGAACAUCUUCGGAUGCAGAGGUGGCUGGCUUCGGUGUCGCGAUAGCGCCAACGUCCUCAACCUCCAAUGCAUCCCACCACAUGAUGAUGCCUGAAGAGCCCUGGUUUUUUG [A46U A50U G61U U125C]
The “polymerase ribozyme fitness (log ratio)” value of the first is higher: 0.444 for the first, -4.52 for the second.

Going from GACCAAUCUGCCCUCAGAGCUCGAGAACAUCUUCGGAUGCAGAGGGGGCAGGCUUCGGUGGCGCGAUAGCGACAACGUCCUCAACCUCCAAUGCAUCCCACCACAUGAUGAUGCCUGAAGAGCCUUGGUUUUUUG [A46G C72A] to GACCAAUCUGCCCUCAGAGCUCGAGAACAUCUUCGGAUGCAGAGGUGGCAGGCUUCGGUGGCGCGAUAGCGCCGACGUCCUCAACCUCCAAUGCAUCCCAACACAUGAUGAUGCCUGAAGAGCCUUGGUUUUUUG [A46U A74G C101A], the “polymerase ribozyme fitness (log ratio)” value falls from 0.745 to -3.42.

First: GACCAAUCUGCCCUCAGAGCUCGAGAACAUCUUCGGAUGCAGAGGGGGCAGGCUCCGGUGGCGCGAUAGUGCCAACGUCCUCAACCUCCAAUGCAUCCCUCCACAUGAUGAUGCCUGAAGAGCCUUAGUUUUUUG [A46G U55C C70U A100U G127A]
Second: GACCAAUCUGCCCUCAGAGCUCGAGAACAUCUUCGGAUGCAGAGGGGGCAGGCUUCGGUUGCGCGAUAGCGCCAACGUCCUCAACCUCCAAUGUAUCCCACCACAUGAUGAUGCCUGAAGAGCCUUGGUUUUUUG [A46G G60U C94U]
The “polymerase ribozyme fitness (log ratio)” value of the first is lower: -2.53 for the first, -1.81 for the second.

GACCAAUCUGCCCUCAGAGCUCGAGAACAUCUUCGGAUGCAGAGGGGGCAGGCUUCGGUGGCGCGAUAACGCCAACGUCCUCAACCUCCAAUGCAUCCCACCACAUGAUAAUGCCUGAAGAGCCUUGGUUUUUUG [A46G G69A G110A] and GACCAAUCUGCCCUCAGAGCUCGAGAACAUCUUCGGAUGCAGAGGGGGCAGGCUUCGUUGGCGCGAUAACGCCAACGUCCUCAACCUCCAAUGCAUCCCACCACAUGAUAAUGCCUGAAGAGCCUUGGUUUUUUG [A46G G58U G69A G110A] are within 0.2 log units of each other in “polymerase ribozyme fitness (log ratio)” value: -4.77 for the first, -4.68 for the second.

Going from GACCAAUCUGCCCUCAGAGCUCGAGAACAUCUUCGGAUGCAGAGGGGGCAGGCUUCGGUGGCGCGAUAGCUCCAACGUCCUCAACCUCCAAUGCAUCCCACCACAUGAUGAUGCCUGAAGAGCCUUGGUUUUUUG [A46G G71U] to GACCAAUCUGCCCUCAGAGCUCGAGAACAUCUUCGGAUGCAGAGGGGGCAGGCUUCGGUGGCGCGAUAGCGCCAACGUCCUCAACCCCCAAUGCAUCCCACCACAUGAUGAUGCCUGAAGAGCCUUGGUUUUUUG [A46G U87C], the “polymerase ribozyme fitness (log ratio)” value rises from -1.19 to 0.254.

Compared with GACCAAUCUGCCCUCAGAGCUCGAGAACAUCUUCGGAUGCAGAGGGGGCAGGCUUCGGUGGCGCGAUAGCGCCAACGUCCUUAACCUCCAAUGCAUCCCACCACAAGAUGAUGCCUGAAGAGCCUUGGUUUUUUG [A46G C82U U106A], GACCAAUCUGCCCUCAGAGCUCGAGAACAUCUUCGGAUGCAGAGGGGGCAGGCUUCGGUGGCGCGAUAGCGCCAACGUCCUCAACGUCCAAUGCAUCCCAACACAUGAUGAUGUCUGAAGAGCCUUGGUUUUUUG [A46G C86G C101A C114U] is lower in “polymerase ribozyme fitness (log ratio)” value: -0.902 for the first, -4.69 for the second.

Compared with GACCAAUCUGCCCUCAGAGCUCGAGAACAUCUUCGGAUGCAGAGGUGGCAGGCUUCGGUGGCGCGAUAGCGCCUACGUCCUCAACCGCCAAUACAUCUCACCACAUGAUGAUGCCUGAAGAGCCUUGGUUUUUUG [A46U A74U U87G G93A C98U], GACCAAUCUGCCCUCAGAGCUCGAGAACAUCUUCGGAUGCAGAGGGGACAGGCUUCGGUGGCGAGAUAGCGCCAACGUCCUCAACCUCCAAUGCAUCCCACCACAUGAUGAUGCCUGAAGAGCCUUGGUUUUUUG [A46G G48A C64A] is lower in “polymerase ribozyme fitness (log ratio)” value: -2.38 for the first, -6.8 for the second.

Compared with GACCAAUCUGCCCUCAGAGCUCGAGAACAUCUUCGGAUGCAGAGGGGGCAGGCUUCGGUGGCGCGAUAGCGCAAACGUCCUCAACCUCCAAUGCAUCCCACCACAUGGUGAUGCCUGAAGAGCCUUGGUUUUUUG [A46G C73A A108G], GACCAAUCUGCCCUCAGAGCUCGAGAACAUCUUCGGAUGCAGAGGGGGCAGGCUUCGGUGGUGCGAUAGCGCCAACGUCCUCAACCUCCAAUGCAUCCCACCACAUGAUGAUGCCUUAAGAGCCUUGGUUUUUUG [A46G C62U G117U] is lower in “polymerase ribozyme fitness (log ratio)” value: -2.82 for the first, -3.06 for the second.

Compared with GACCAAUCUGCCCUCAGAGCUCGAGAACAUCUUCGGAUGCAGAGGGGGCAGGCUUCGGUGGCGCGAUAGCGCCAACGUCCUCAACCUUCAAUGCAUCCCACCACAUGAUGAUGCCUGAAGAGCCUUGGUUUUUUG [A46G C88U], GACCAAUCUGCCCUCAGAGCUCGAGAACAUCUUCGGAUGCAGAGGGGGCAGGCUUCGGUGGCGCGAUACCGCCAACGUCCUCAACCUCCAAUGCAUCCCACCACAUGAUGAUGCCUGAAGAGCCUUGGUUUUUUG [A46G G69C] is lower in “polymerase ribozyme fitness (log ratio)” value: -0.84 for the first, -2.16 for the second.

In the case of GACCAAUCUGCCCUCAGAGCUCGAGAACAUCUUCGGAUGCAGAGGUGGCAGGCUUCGGUGGCGCGAUAGCGCCUACGUCCUAAACCUCCAAUGCAUCCCACCACAUGAUGAUGCCUGAAGAGCCUUGGUUUUUUG [A46U A74U C82A], the “polymerase ribozyme fitness (log ratio)” value is reported as -1.61.
